Source: patent US20100069462A1 (JICHI MEDICAL UNIVERSITY, published 2010)

Molecular target: T1, PHB2-FLAG (human PHB2 protein with a FLAG tag fused to the carboxyl terminus) (human, UniProt O35129 1-299 (mouse entry))
T1 construct: Expressed in HeLa cells; immunoprecipitated with an anti-FLAG antibody from purified mitochondrial fractions; also called prohibitin 2; not shown: FLAG tag at the C-terminus
Assay: immunoprecipitation and mass spectrometry on purified HeLa mitochondrial fractions (summary of Example 3)
Experimental: First, immunoprecipitation (IP) analysis and mass spectrometry (MASS analysis) were conducted using purified mitochondrial fractions derived from HeLa cells expressing PHB2-FLAG, which had been prepared in Example 1.
In IP analysis, an immunoprecipitation method was performed using an anti-FLAG antibody, the precipitates were subjected to 12% SDS-PAGE, protein staining was performed, and then proteins that had been co-precipitated with the PHB2-FLAG protein were detected.

T1 sequence (O35129 whole entry, the tested form may be a part): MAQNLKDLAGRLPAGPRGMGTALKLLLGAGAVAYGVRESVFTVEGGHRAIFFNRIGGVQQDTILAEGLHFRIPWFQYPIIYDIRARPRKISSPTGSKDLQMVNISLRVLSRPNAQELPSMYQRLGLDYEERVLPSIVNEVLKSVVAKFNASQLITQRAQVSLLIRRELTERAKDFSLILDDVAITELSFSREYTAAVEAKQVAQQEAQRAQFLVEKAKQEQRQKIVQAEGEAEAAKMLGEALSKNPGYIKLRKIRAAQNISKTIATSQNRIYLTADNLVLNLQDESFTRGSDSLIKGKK

B1: PHB1 protein (other, human, UniProt P35232 2-272, looked up)
chain: AAKVFESIGKFGLALAVAGGVVNSALYNVDAGHRAVIFDRFRGVQDIVVGEGTHFLIPWVQKPIIFDCRSRPRNVPVITGSKDLQNVNITLRILFRPVASQLPRIFTSIGEDYDERVLPSITTEILKSVVARFDAGELITQRELVSRQVSDDLTERAATFGLILDDVSLTHLTFGKEFTEAVEAKQVAQQEAERARFVVEKAEQQKKAAIISAEGDSKAAELIANSLATAGDGLIELRKLEAAEDIAYQLSRSRNITYLPAGQSVLLQLPQ
notes: Endogenous protein co-precipitated from HeLa mitochondrial fractions; also called prohibitin
B1: binds.
